Measured values from paper PMC11582648 (Nature Communications, 2024).

Biological target: T1, GST-CK1δ (human, UniProt P48730-2 1-409)
T1 sequence: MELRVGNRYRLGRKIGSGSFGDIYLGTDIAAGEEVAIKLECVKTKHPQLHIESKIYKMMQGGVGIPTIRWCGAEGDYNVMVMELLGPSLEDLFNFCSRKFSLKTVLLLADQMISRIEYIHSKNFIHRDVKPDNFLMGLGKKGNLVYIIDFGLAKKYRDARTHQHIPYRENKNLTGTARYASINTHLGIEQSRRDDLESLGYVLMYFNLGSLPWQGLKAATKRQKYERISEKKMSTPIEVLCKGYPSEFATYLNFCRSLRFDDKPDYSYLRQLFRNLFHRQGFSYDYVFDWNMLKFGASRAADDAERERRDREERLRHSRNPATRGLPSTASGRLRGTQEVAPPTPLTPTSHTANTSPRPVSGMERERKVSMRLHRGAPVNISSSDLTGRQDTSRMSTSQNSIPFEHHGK
Test: pull-down

B1: His-USP46 (enzyme)
chain: MTVRNIASICNMGTNASALEKDIGPEQFPINEHYFGLVNFGNTCYCNSVLQALYFCRPFRENVLAYKAQQKKKENLLTCLADLFHSIATQKKKVGVIPPKKFISRLRKENDLFDNYMQQDAHEFLNYLLNTIADILQEEKKQEKQNGKLKNGNMNEPAENNKPELTWVHEIFQGTLTNETRCLNCETVSSKDEDFLDLSVDVEQNTSITHCLRDFSNTETLCSEQKYYCETCCSKQEAQKRMRVKKLPMILALHLKRFKYMEQLHRYTKLSYRVVFPLELRLFNTSSDAVNLDRMYDLVAVVVHCGSGPNRGHYITIVKSHGFWLLFDDDIVEKIDAQAIEEFYGLTSDISKNSESGYILFYQSRE
B1: binds.
